This note sets out measurements from patent publication US20180155451A1 (published 2018).

One assay concerns the target T1, FcγRIa (human, UniProt P12314 16-292).
T1 construct: extracellular domain; also called FcgRI; 1a
Put plainly: SPR, captured antibody; relative to GpH7-A5/GpH7-B3/GpL16-k0. A general note: SPR reads the build-up and loss of mass on a sensor chip optically.

In another assay the target is T2, FcγRIIb (human, UniProt P31994 43-217).
T2 construct: extracellular domain; also called FcgRIIb; 2b
T2 sequence (looked up): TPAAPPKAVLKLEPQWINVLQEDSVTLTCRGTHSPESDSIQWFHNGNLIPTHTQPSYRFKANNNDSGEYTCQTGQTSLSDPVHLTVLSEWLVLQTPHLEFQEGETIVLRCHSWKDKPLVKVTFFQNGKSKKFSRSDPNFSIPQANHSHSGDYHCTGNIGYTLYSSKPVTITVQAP
The assay is described as above.

T1 sequence (P12314 16-292): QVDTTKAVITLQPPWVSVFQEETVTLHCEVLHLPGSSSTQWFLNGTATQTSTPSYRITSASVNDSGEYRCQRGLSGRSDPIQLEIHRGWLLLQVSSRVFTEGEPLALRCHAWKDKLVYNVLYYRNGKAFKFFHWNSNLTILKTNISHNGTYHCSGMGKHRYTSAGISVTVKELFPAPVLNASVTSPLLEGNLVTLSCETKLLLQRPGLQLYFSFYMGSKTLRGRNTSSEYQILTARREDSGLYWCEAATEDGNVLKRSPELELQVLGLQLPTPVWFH

B1: GpH7-A5/GpH7-B3 variant (H268_08L)/GpL16-k0 (antibody, human IgG1, kappa)
heavy 1: not shown
heavy 2: not shown
light: DIVMTQSPLSLPVTPGEPASISCQASESLVHSNRNTYLHWYLQKPGQSPQLLIYKVSNRFSGVPDRFSGSGSGTDFTLKISRVEAEDVGVYYCSQNTHVPPTFGQGTKVEIERTVAAPSVFIFPPSDEQLKSGTASVVCLLNNFYPREAKVQWKVDNALQSGNSQESVTEQDSKDSTYSLSSTLTLSKADYEKHKVYACEVTHQGLSSPVTKSFNRGEC
notes: IgG1 heterodimer, mutation in the GpH7-B3 chain only; also called He Ab
On to B1, for which the He/Con_1a in the assay with FcγRIa is 107 relative, HeCon Ab = 100. The He/Con_2b with FcγRIIb was 67.8 relative, HeCon Ab = 100.

B2: GpH7-A5/GpH7-B3 variant (L234_05P)/GpL16-k0 (antibody, human IgG1, kappa)
heavy 1: not shown
heavy 2: not shown
light: DIVMTQSPLSLPVTPGEPASISCQASESLVHSNRNTYLHWYLQKPGQSPQLLIYKVSNRFSGVPDRFSGSGSGTDFTLKISRVEAEDVGVYYCSQNTHVPPTFGQGTKVEIERTVAAPSVFIFPPSDEQLKSGTASVVCLLNNFYPREAKVQWKVDNALQSGNSQESVTEQDSKDSTYSLSSTLTLSKADYEKHKVYACEVTHQGLSSPVTKSFNRGEC
notes: as for B1
On to B2, for which the He/Con_1a with FcγRIa was 99.9 relative, HeCon Ab = 100. Besides, the He/Con_2b with FcγRIIb was 72.9 relative, HeCon Ab = 100.

B3: GpH7-A5/GpH7-B3 variant (L234_14T)/GpL16-k0 (antibody, human IgG1, kappa)
heavy 1: not shown
heavy 2: not shown
light: DIVMTQSPLSLPVTPGEPASISCQASESLVHSNRNTYLHWYLQKPGQSPQLLIYKVSNRFSGVPDRFSGSGSGTDFTLKISRVEAEDVGVYYCSQNTHVPPTFGQGTKVEIERTVAAPSVFIFPPSDEQLKSGTASVVCLLNNFYPREAKVQWKVDNALQSGNSQESVTEQDSKDSTYSLSSTLTLSKADYEKHKVYACEVTHQGLSSPVTKSFNRGEC
notes: as for B1
Regarding B3, the He/Con_1a with FcγRIa is 98.6 relative, HeCon Ab = 100. Besides, in the assay with FcγRIIb, the He/Con_2b was 62.5 relative, HeCon Ab = 100.

B4: GpH7-A5/GpH7-B3 variant (L234_15Y)/GpL16-k0 (antibody, human IgG1, kappa)
heavy 1: not shown
heavy 2: not shown
light: DIVMTQSPLSLPVTPGEPASISCQASESLVHSNRNTYLHWYLQKPGQSPQLLIYKVSNRFSGVPDRFSGSGSGTDFTLKISRVEAEDVGVYYCSQNTHVPPTFGQGTKVEIERTVAAPSVFIFPPSDEQLKSGTASVVCLLNNFYPREAKVQWKVDNALQSGNSQESVTEQDSKDSTYSLSSTLTLSKADYEKHKVYACEVTHQGLSSPVTKSFNRGEC
notes: IgG1 heterodimer, L234Y in the GpH7-B3 chain only; also called GpH7-A5/GpH7-B3-01-15Y/GpL16-k0; He Ab
As to B4, the He/Con_1a with FcγRIa is 100 relative, HeCon Ab = 100. Besides, in the assay with FcγRIIb, the He/Con_2b is 96.3 relative, HeCon Ab = 100.

B5: GpH7-A5/GpH7-B3 variant (L235_01G)/GpL16-k0 (antibody, human IgG1, kappa)
heavy 1: not shown
heavy 2: not shown
light: DIVMTQSPLSLPVTPGEPASISCQASESLVHSNRNTYLHWYLQKPGQSPQLLIYKVSNRFSGVPDRFSGSGSGTDFTLKISRVEAEDVGVYYCSQNTHVPPTFGQGTKVEIERTVAAPSVFIFPPSDEQLKSGTASVVCLLNNFYPREAKVQWKVDNALQSGNSQESVTEQDSKDSTYSLSSTLTLSKADYEKHKVYACEVTHQGLSSPVTKSFNRGEC
notes: as for B1
For the molecule B5, the He/Con_1a in the assay with FcγRIa was 87.2 relative, HeCon Ab = 100. Moreover, the He/Con_2b with FcγRIIb is 35.4 relative, HeCon Ab = 100.

B6: GpH7-A5/GpH7-B3 variant (H268_11K)/GpL16-k0 (antibody, human IgG1, kappa)
heavy 1: not shown
heavy 2: not shown
light: DIVMTQSPLSLPVTPGEPASISCQASESLVHSNRNTYLHWYLQKPGQSPQLLIYKVSNRFSGVPDRFSGSGSGTDFTLKISRVEAEDVGVYYCSQNTHVPPTFGQGTKVEIERTVAAPSVFIFPPSDEQLKSGTASVVCLLNNFYPREAKVQWKVDNALQSGNSQESVTEQDSKDSTYSLSSTLTLSKADYEKHKVYACEVTHQGLSSPVTKSFNRGEC
notes: as for B1
Take B6: in the assay with FcγRIa, the He/Con_1a is 106 relative, HeCon Ab = 100. Also, in the assay with FcγRIIb, the He/Con_2b is 83 relative, HeCon Ab = 100.

B7: GpH7-A5/GpH7-B3 variant (L234_04F)/GpL16-k0 (antibody, human IgG1, kappa)
heavy 1: not shown
heavy 2: not shown
light: DIVMTQSPLSLPVTPGEPASISCQASESLVHSNRNTYLHWYLQKPGQSPQLLIYKVSNRFSGVPDRFSGSGSGTDFTLKISRVEAEDVGVYYCSQNTHVPPTFGQGTKVEIERTVAAPSVFIFPPSDEQLKSGTASVVCLLNNFYPREAKVQWKVDNALQSGNSQESVTEQDSKDSTYSLSSTLTLSKADYEKHKVYACEVTHQGLSSPVTKSFNRGEC
notes: as for B1
Consider B7, for which the He/Con_1a with FcγRIa is 101 relative, HeCon Ab = 100. Moreover, the He/Con_2b in the assay with FcγRIIb is 99.8 relative, HeCon Ab = 100.

B8: GpH7-A5/GpH7-B3 variant (L234_19Q)/GpL16-k0 (antibody, human IgG1, kappa)
heavy 1: not shown
heavy 2: not shown
light: DIVMTQSPLSLPVTPGEPASISCQASESLVHSNRNTYLHWYLQKPGQSPQLLIYKVSNRFSGVPDRFSGSGSGTDFTLKISRVEAEDVGVYYCSQNTHVPPTFGQGTKVEIERTVAAPSVFIFPPSDEQLKSGTASVVCLLNNFYPREAKVQWKVDNALQSGNSQESVTEQDSKDSTYSLSSTLTLSKADYEKHKVYACEVTHQGLSSPVTKSFNRGEC
notes: as for B1
Take B8: in the assay with FcγRIa, the He/Con_1a was 95.7 relative, HeCon Ab = 100. Moreover, the He/Con_2b in the assay with FcγRIIb was 60.3 relative, HeCon Ab = 100.

B9: GpH7-A5/GpH7-B3 variant (L234_01G)/GpL16-k0 (antibody, human IgG1, kappa)
heavy 1: not shown
heavy 2: not shown
light: DIVMTQSPLSLPVTPGEPASISCQASESLVHSNRNTYLHWYLQKPGQSPQLLIYKVSNRFSGVPDRFSGSGSGTDFTLKISRVEAEDVGVYYCSQNTHVPPTFGQGTKVEIERTVAAPSVFIFPPSDEQLKSGTASVVCLLNNFYPREAKVQWKVDNALQSGNSQESVTEQDSKDSTYSLSSTLTLSKADYEKHKVYACEVTHQGLSSPVTKSFNRGEC
notes: as for B1
Turning to B9, in the assay with FcγRIa, the He/Con_1a is 96.1 relative, HeCon Ab = 100. Further, the He/Con_2b with FcγRIIb was 50.7 relative, HeCon Ab = 100.
